Laboratory results reported in US20030054004A1 (published 2003).
Blank lines part the entries; values can stand above or below the molecule they belong to.

Key:
[1] = target: human lymphotoxin (TNFβ) (human) (UniProt P01374); assay: cell-based or functional assay
recombinant human TNFα = recombinant human TNFα (human, UniProt P01375 77-233); assay: cell-based or functional assay
Sequence of recombinant human TNFα (P01375 77-233): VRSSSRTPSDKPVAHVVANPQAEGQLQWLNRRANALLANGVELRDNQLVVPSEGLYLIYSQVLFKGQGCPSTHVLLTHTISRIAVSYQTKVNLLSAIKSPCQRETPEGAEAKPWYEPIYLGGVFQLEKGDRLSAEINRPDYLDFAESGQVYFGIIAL

Sequence of human lymphotoxin (TNFβ) (human) (P01374 35-205 limits assumed): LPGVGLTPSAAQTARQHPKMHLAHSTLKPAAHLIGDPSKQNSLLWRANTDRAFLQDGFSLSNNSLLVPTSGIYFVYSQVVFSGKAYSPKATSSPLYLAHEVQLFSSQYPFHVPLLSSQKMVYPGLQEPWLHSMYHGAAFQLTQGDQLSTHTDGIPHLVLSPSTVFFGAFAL

Molecule: p75P-sf2 (p75 extracellular domain lacking the C-terminal 53 amino acids, fused to the IgG1 heavy chain) (from UniProt P20333 23-204) (Fc fusion)
concentration to half-inhibit human TNFβ at 2 pM, WEHI 164 cytotoxicity [1]: 31 pM

B1: p75P-sf3 (as p75P-sf2 but lacking the CH1 domain) (Fc fusion, human, not shown: a dimerising Fc or GST)
heavy: QLPAQVAFTPYAPEPGSTCRLREYYDQTAQMCCSKCSPGQHAKVFCTKTSDTVCDSCEDSTYTQLWNWVPECLSCGSRCSSDQVETQACTREQNRICTCRPGWYCALSKQEGCRLCAPLRKCRPGFGVARPGTETSDVVCKPCAPGTFSNTTSSTDICRPHQICNVVAIPGNASMDAVCTSTSGTLVTVSS
IC50: concentration of fusion protein required to inhibit 2 ng/ml (39.2 pM) TNFα by 50%, WEHI 164 cytotoxicity (recombinant human TNFα): 130 pM

B2: p55-sf3 (p55 / IgG1 heavy chain fusion lacking the CH1 domain) (Fc fusion, human, not shown: a dimerising Fc or GST)
heavy: QVCPQGKYIHPQNNSICCTKCHKGTYLYNDCPGPGQDTDCRECESGSFTASENHLRHCLSCSKCRKEMGQVEISSCTVDRDTVCGCRKNQYRHYWSENLFQCFNCSLCLNGTVHLSCQEKQNTVCTCHAGFFLRENECVSCSNCKKSLECTKLCLPQIGTLVTVSS
IC50: concentration of fusion protein required to inhibit 2 ng/ml (39.2 pM) TNFα by 50%, WEHI 164 cytotoxicity (recombinant human TNFα): 100 pM

IL-6 in supernatant of FS-4 fibroblasts; TNF 0.3 ng/ml, 4 µg/ml antibody (recombinant human TNFα): 1.6 ng/mL
IL-6 in supernatant of FS-4 fibroblasts; TNF 1.5 ng/ml, 4 µg/ml antibody (recombinant human TNFα): 1.96 ng/mL
IL-6 in supernatant of FS-4 fibroblasts; TNF 7.5 ng/ml, 4 µg/ml antibody (recombinant human TNFα): 2.16 ng/mL
B3: chimeric mouse/human IgG1 anti-platelet mAb (7E3) (antibody, INN chains, looked up, V domains shown)
VH: EVQLQQSGTVLARPGASVKMSCEASGYTFTNYWMHWVKQRPGQGLEWIGAIYPGNSDTSYIQKFKGKAKLTAVTSTTSVYMELSSLTNEDSAVYYCTLYDGYYVFAYWGQGTLVTVSA
VL: EIVLTQSPVTLSVTPGDSVSLSCRASRDISNNLHWFQQTSHESPRLLIKYASQSMSGIPSRFSGSGSGTDFTLSINSVETEDFGMYFCQQTNSWPYTFGGGTKLEIK
modifications: IgG1
